What was measured:
SOCS3 in Treg = test: SOCS3 expression in forskolin-treated Treg by intracellular staining; format: cell-based, human; conditions: after 24 hour stimulation
Experimental: To evaluate effects of plasma on suppression assays and immune cell cultures, frozen plasma samples were thawed at 25° C. and debris were removed with sterile 40 μm filters (BD Biosciences). All plasma samples were tested in duplicates or triplicates. To control for variations in suppressive and proliferative potentials of Treg and Teff, respectively, both HC and SJIA plasma samples were used in parallel suppression assays with the same set of purified cells for each round of experiments. In addition, fold change in 3H-thymidine cpm in assays with plasma compared to those in complete media alone, was computed to analyze the effects of plasma in suppression assays or stimulation assays. In CFSE assays, percentage of proliferating cells (shown by dye dilution) was used to analyze the effects of plasma on cell proliferation. IL-1Ra, neutralizing antibody against IL-6 and TNF-α (R&D System), and recombinant IL-1, IL-6 (Peprotech) were used to evaluate the roles of these cytokines in suppression assays. Recombinant SAA (Peprotech) was used at different concentrations in suppression assays in the presence of polymixin (5 μg/ml). […] To pharmacologically modulate SOCS3, isolated Treg were cultured with forskolin (Calbiochem) at different concentrations and analyzed for SOCS3 expression at different time points. […]

Treg and Teff [1] = test: CFSE-based Treg suppression assay with APC; format: cell-based, human
Experimental: Carboxyfluorescein diacetate succinimidyl ester (CFSE) dilution assay was used for measuring T cell proliferation in suppression assays. Briefly, Treg were labeled with CFSE using Cell Tracer CFSE Cell Proliferation kit (Molecular Probes) at a final concentration of 10 μM, according to manufacturer's instructions. Assays with labeled cells were performed as described for 3H-thymidine-based suppression assays. After 7 days of culture, cells were harvested and dye dilution was analyzed by flow cytometry. Stimulation assays were set up similarly with allogeneic irradiated APC and only one type of CFSE-labeled T cells (either Treg or Teff). For APC fixation, these cells were first re-suspended in PBS+10% FBS+1% paraformaldehyde for […] at 37° C. Fixed cells were pelleted by centrifugation, washed and then cultured in complete media.
To evaluate effects of plasma on suppression assays and immune cell cultures, frozen plasma samples were thawed at 25° C. and debris were removed with sterile 40 μm filters (BD Biosciences). All plasma samples were tested in duplicates or triplicates. To control for variations in suppressive and proliferative potentials of Treg and Teff, respectively, both HC and SJIA plasma samples were used in parallel suppression assays with the same set of purified cells for each round of experiments. In addition, fold change in 3H-thymidine cpm in assays with plasma compared to those in complete media alone, was computed to analyze the effects of plasma in suppression assays or stimulation assays. In CFSE assays, percentage of proliferating cells (shown by dye dilution) was used to analyze the effects of plasma on cell proliferation. IL-1Ra, neutralizing antibody against IL-6 and TNF-α (R&D System), and recombinant IL-1, IL-6 (Peprotech) were used to evaluate the roles of these cytokines in suppression assays. […] To pharmacologically modulate SOCS3, isolated Treg were cultured with forskolin (Calbiochem) at different concentrations and analyzed for SOCS3 expression at different time points.

[2] = tested on: pERK1/2, pAKT, pSTAT3 in Treg and Teff; test: Phosphorylation of ERK1/2, AKT and STAT3 in Treg and Teff in suppression assays by FACS; format: cell-based, human; conditions: assays with SJIA plasma, day 4; IL-1 RA 1 μM, anti-IL-6 1 μg/ml
Experimental: (§1) Detection of surface markers and intracellular molecules was performed. Antibodies used in these experiments included anti-human RAGE, SOCS3 (Abcam), CD14-FITC, DR-FITC, Foxp3-FITC, Lin (mixture of CD3, CD14, CD16, CD19, CD56)-FITC, CD14-PE, CD25-PE, CD40-PE, CD83-PE, CD127-PE, HVEM-PE, PDL2-PE, IL-1-PE, IL-6-PE, CD3-PerCP, CD4-PerCP, CD19-PerCP, CD25-PerCP, DR-PerCP, Lin-PerCP, CD3-APC, CD4-APC, CD14-APC, CD36-APC, CD86-APC, TLR2-APC, TLR4-APC, PDL1-APC, CCR7-APC, IL-6-APC, Lin-APC (Biolegend), Ki-67 FITC, pSTAT3 Alexa-647, pAKT Alexa-647, pERK1/2 Alexa-647 (BD Biosciences), and FPRL-1-APC(R&D System). Antibodies to mouse proteins used in these experiments included anti-CD25-PE, CD4-PerCP, CD11b-PerCP, CD115-APC, and Foxp3-APC (Biolegend). For in vitro experiments, to assay for expression of different surface and intracellular molecules in a specific cell subset (Treg, Teff or APC) in mixed cell cultures, the relevant subset was labeled with CFSE prior to suppression assays. Cells were pelleted at various time points and underwent standard staining protocols of the manufacturers. For in vivo experiments, cells were harvested from the peritoneal cavity and underwent flow cytometric analysis.

peritoneal Treg and Teff = test: In vivo effects of SAA on Treg frequency and proliferation (intraperitoneal injection); design: species or system C57B6 mice; conditions: 16 hours
Experimental: as §1, with “C57B6 mice (male, 8 to 10 weeks old) were purchased from Jackson Laboratory. Mice were injected intraperitoneally with recombinant human SAA (Peprotech, 30 μg in 100 μl PBS), purified human serum albumin (Sigma Aldrich, 30 μg in 100 μl PBS), or endotoxin (Sigma Aldrich, 0.25 ng in 100 μl PBS). Animals were sacrificed 16 hours later; peritoneal cells were harvested and stained for surface and intracellular markers to detect Treg frequency and proliferation. In vivo depletion of monocytes was performed with clodronate liposomes (Encapsula). In these experiments, 400 μl of clodronate or empty liposomes were injected intraperitoneally 24 hours before SAA injection. Detection” for “Detection”, “[…],” for “CD127-PE, HVEM-PE, PDL2-PE, IL-1-PE, IL-6-PE,”

[3] = tested on: APC, monocytes and B cells; test: Secreted and intracellular cytokines in suppression assays, APC, monocyte and B cell cultures; format: cell-based, human; conditions: 25 μg/ml, polymixin 5 μg/ml, 24 hours
Experimental: Both suppression assays and APC cultures were set up for supernatant collection. For APC cultures, 50 μl of APC stock solution (750,000 cells per ml) were incubated in a final volume of 200 μl per well in complete media. Plasma samples were used at 35 μl per well. At different time points, supernatants were collected after centrifugation to pellet cells; supernatants representing samples from the same experimental conditions were pooled from 6 wells of 96-well plates and stored at −80° C. until analysis. To detect cytokines in the supernatants, cytometric bead arrays (BD Biosciences) and ELISA (R&D System) were used according to manufacturers' protocols. Similar assays were performed for plasma samples from HC and SJIA subjects.
Detection of surface markers and intracellular molecules was performed. Antibodies used in these experiments included anti-human RAGE, SOCS3 (Abcam), CD14-FITC, DR-FITC, Foxp3-FITC, Lin (mixture of CD3, CD14, CD16, CD19, CD56)-FITC, CD14-PE, CD25-PE, CD40-PE, CD83-PE, CD127-PE, HVEM-PE, PDL2-PE, IL-1-PE, IL-6-PE, CD3-PerCP, CD4-PerCP, CD19-PerCP, CD25-PerCP, DR-PerCP, Lin-PerCP, CD3-APC, CD4-APC, CD14-APC, CD36-APC, CD86-APC, TLR2-APC, TLR4-APC, PDL1-APC, CCR7-APC, IL-6-APC, Lin-APC (Biolegend), Ki-67 FITC, pSTAT3 Alexa-647, pAKT Alexa-647, pERK1/2 Alexa-647 (BD Biosciences), and FPRL-1-APC(R&D System). […]

Treg and Teff [4] = test: Suppression assay without APC (anti-CD3 and anti-CD28 as T cell stimuli); format: cell-based, human; conditions: recombinant SAA 25 μg/ml
Experimental: Standard 3H-thymidine-based suppression assays were performed to analyze Treg function. Autologous Treg and Teff were cultured at 3,750 cells per 50 μl per well in complete media (RPMI+10% FBS+1% L-glutamine) with allogeneic irradiated CD3-depleted peripheral blood mononuclear cells (antigen presenting cells or APC), at 37,500 cells per 50 μl per well. Anti-CD3 antibodies (clone UCHT1, BD Biosciences) were pre-coated on U-bottom 96 well plates at 5 μg/ml for 4 hours at 37° C. before suppression assays. Additional media was added so the final volume in each well was 200 μl. On day 6, cells were pulsed with 1 μCi 3H-thymidine (25 μl) per well and harvested on day 7 with a Tomtec cell harvester. 3H-thymidine incorporation was determined using a 1450 microbeta Wallac Trilux liquid scintillation counter. […] Stimulation assays were set up similarly with allogeneic irradiated APC and only one type of T cell (either Treg or Teff). All assays were performed in triplicates. For suppression assays without APC, anti-CD3 antibodies at 5 μg/ml final concentration (clone UCHT1, BD Biosciences) were plate-bound in U-bottom 96-well plates for 4 hours at 37° C. Soluble anti-CD28 (5 μg/ml, BD Biosciences) was added, followed by Teff (40,000 cells per 50 μl per well) and Treg (40,000 cells per 50 μl per well). […]

[5] = in the presence of polymixin (5 μg/ml)

`C=C[C@@]1(C)CC(=O)[C@]2(O)[C@@]3(C)[C@@H](O)CCC(C)(C)[C@@H]3[C@H](O)[C@H](OC(C)=O)[C@@]2(C)O1` [forskolin] was tested, and the “optimal dosing for SOCS3 induction in Treg” value (SOCS3 in Treg) was 100 µM.

“IL-1Ra: IL-1 receptor antagonist (R&D System)” was tested, and the “inhibition of SJIA plasma-induced Treg proliferation” value (Treg and Teff [1]; suppression assays with SJIA plasma, various concentrations, IL-1 Ra 1 μM, antibodies 1 μg/ml) was “significant inhibition”, the “phosphorylated ERK1/2 in Treg with blocking reagent” value [2] was “abrogated the increased expression” and the “phosphorylation of AKT in Treg with blocking reagent” value [2] was “inhibited phosphorylation of AKT”.

B1: recombinant human SAA (protein, UniProt P0DJI8 19-122, looked up)
Serum amyloid A-1 protein: RSFFSFLGEAFDGARDMWRAYSDMREANYIGSDKYFHARGNYDAAKRGPGGAWAAEVITDARENIQRFFGHGAEDSLADQAANEWGRSGKDPNHFRPAGLPEKY
For B1, the “Treg abundance in the peritoneal cavity” value (peritoneal Treg and Teff; 30 μg i.p. in 100 μl PBS, vs human serum albumin or endotoxin) was “significant increase in Treg abundance”, the “Teff proliferation in vivo” value (peritoneal Treg and Teff; 30 μg i.p.) was “did not enhance Teff proliferation” and the “percentage of peritoneal Treg expressing Ki-67” value (peritoneal Treg and Teff; 30 μg i.p., vs controls) was “significantly higher percentage”. The “Treg proliferation in suppression assays” value (Treg and Teff [1]; [5]) was “selectively enhance proliferation of Treg”, the Treg suppressive activity (Treg and Teff [1]; [5]) was “without reducing their suppressive activity” and the “IL-1 production by monocytes compared with B cells” value [3] was “significantly higher levels”. For the same molecule, the “IL-6 production by monocytes compared with B cells” value [3] was “significantly higher levels” and the “Treg proliferation in the absence of APC” value (Treg and Teff [4]) was “failed to induce Treg proliferation”.

— patent publication US20130330294A1, “Serum Amyloid A (SAA) Overrides Regulatory T Cells (TREG) Anergy” (The Board of Trustees of the Leland Stanford Junior …, priority 2010, published 2013)
